Measured values reported in PMC3351156 (Nucleic Acids Research, 2012).
Where two headings read alike, the source gives them in different places. Non-standard residues stand in square brackets, D forms with d. No end group written: not given here. pT = C[C@@H](OP(=O)(O)O)[C@H](N)C(=O)O

B1: MDC1^27–138 (MDC1 FHA domain, residues 27–138) (domain or fragment, UniProt Q14676 27-138, looked up)
chain: NVEPVGRLHIFSGAHGPEKDFPLHLGKNVVGRMPDCSVALPFPSISKQHAEIEILAWDKAPILRDCGSLNGTQILRPPKVLSPGVSHRLRDQELILFADLLCQYHRLDVSLP
B3: MDC1^2–133 (unphosphorylated) (domain or fragment, UniProt Q14676 2-133, looked up)
chain: EDTQAIDWDVEEEEETEQSSESLRCNVEPVGRLHIFSGAHGPEKDFPLHLGKNVVGRMPDCSVALPFPSISKQHAEIEILAWDKAPILRDCGSLNGTQILRPPKVLSPGVSHRLRDQELILFADLLCQYHRL

Assays:
[1] = target: Mutator 2 FHA domain (Drosophila melanogaster) (Drosophila melanogaster)
SEC [2] = target: the molecule itself; assay: SEC
SEC [3] = target: the molecule itself; assay: SEC; remark: listed apart in the source
[4] = target: B3; assay: AUC
SMT3-MDC1^2–133-T98A = target: T1, SMT3-MDC1^2–133-T98A (UniProt Q14676 2-133, T98A); assay: ITC
T1 sequence (looked up): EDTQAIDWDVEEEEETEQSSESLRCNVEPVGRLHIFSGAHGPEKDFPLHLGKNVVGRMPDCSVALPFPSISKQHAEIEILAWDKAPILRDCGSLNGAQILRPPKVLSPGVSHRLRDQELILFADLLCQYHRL

[5] = target: B1; assay: ITC
AUC [6] = target: the molecule itself; assay: AUC
AUC [7] = target: the molecule itself; assay: AUC; remark: listed apart in the source
SEC [8] = target: the molecule itself; assay: SEC; remark: listed apart in the source

Mutator 2 FHA domain (Drosophila melanogaster) (domain or fragment)
stoichiometry N [1]: 2

NIIGRHTNCDVTLPAQSVSKKHAIIEVEADCHTLCDQGSLNKTRRGKAAI (domain or fragment) [FHA domain of Xenopus tropicalis MDC1]
stoichiometry N (SEC [2]): 2

B1
stoichiometry N (SEC [3]): 2

MED[pT]QAID [phosphopeptide MED(pT)QAID (pT4-8P)]
Kd [4]: 20 µM
fold reduction of binding affinity against SMT3-MDC1^2–133 (SMT3-MDC1^2–133-T98A): 7 fold
Kd [5]: 40 ± 3 µM

B2: pT4-MDC1^2–133 (T4-phosphorylated MDC1^2–133) (domain or fragment, UniProt Q14676 2-133, looked up)
chain: EDTQAIDWDVEEEEETEQSSESLRCNVEPVGRLHIFSGAHGPEKDFPLHLGKNVVGRMPDCSVALPFPSISKQHAEIEILAWDKAPILRDCGSLNGTQILRPPKVLSPGVSHRLRDQELILFADLLCQYHRL
modifications: phosphothreonine at 4
Kd (AUC [6]): 0.035 µM

B3
Kd (AUC [6]): 9.2 µM
Kd (AUC [7]): 16 µM

B4: pT4-MDC1^2–133-R58A (domain or fragment, UniProt Q14676 2-133, looked up)
chain: EDTQAIDWDVEEEEETEQSSESLRCNVEPVGRLHIFSGAHGPEKDFPLHLGKNVVGAMPDCSVALPFPSISKQHAEIEILAWDKAPILRDCGSLNGTQILRPPKVLSPGVSHRLRDQELILFADLLCQYHRL
modifications: phosphothreonine at 4
binding result (SEC [8]): binds
